Data: patent publication US20120156198A1 (Hoffmann-La Roche, published 2012)

Molecular target: T1, cynomolgus IL-18Rα on CHO-K1 cells (cynomolgus, UniProt A0A2K5V3J9 19-540)
T1 construct: whole, on cells; also called CHO CyIL-18Rα
T1 sequence: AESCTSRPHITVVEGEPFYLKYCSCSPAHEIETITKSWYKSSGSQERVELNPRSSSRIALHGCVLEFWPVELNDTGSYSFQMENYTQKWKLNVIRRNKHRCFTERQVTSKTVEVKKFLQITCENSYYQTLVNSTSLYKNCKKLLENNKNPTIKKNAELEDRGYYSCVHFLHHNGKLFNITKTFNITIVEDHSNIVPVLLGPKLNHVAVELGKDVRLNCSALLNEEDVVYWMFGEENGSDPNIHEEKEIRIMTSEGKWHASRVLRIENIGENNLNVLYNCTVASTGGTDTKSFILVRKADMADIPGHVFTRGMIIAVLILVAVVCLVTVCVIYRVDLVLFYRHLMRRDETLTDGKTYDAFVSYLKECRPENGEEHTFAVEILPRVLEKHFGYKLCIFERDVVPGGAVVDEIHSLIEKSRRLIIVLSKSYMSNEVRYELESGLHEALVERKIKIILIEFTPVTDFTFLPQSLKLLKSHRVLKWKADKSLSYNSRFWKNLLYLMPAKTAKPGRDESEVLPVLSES
Experiment: cell ELISA on CHO-K1 cells expressing cynomolgus IL-18Rα
Description: The recombinant cell lines CHO-K1 expressing cynomolgus IL-18Rα or cynomolgus IL-18Rα+β were stained with the Mab_IL-18R antibodies in a cell ELISA. Controls are CHO-K1 untransfected cells. Cells were grown in F-12 medium (GIBCO) with Glutamax-1 (GIBCO Cat. No. 31331-028)+10% FCS (PAN Cat. No. 2802-P920707). For cultivation of the recominant cell lines 250 μg/ml G418 (Geneticin, GIBCO, Cat. No. 10131-019) was added. As control antibody anti hIL-18Ralpha Antibody Mab840 (Mouse monoclonal IgG1 from R&D Systems, Cat. MAB 840) and as detection antibody goat anti-mouse IgG (H+L)-HRP conjugate (BioRad) was added. For running the assay, on day 1 2×10⁴ CHO_CynoIL-18Rα, CHO_CynoIL-18Rα+β or untransfected CHO cells in 50 μl F-12/well were seeded in a 96-well plate and incubated overnight at 37° C. On day 2, 50 μl supernatant or (2×) purified antibody diluted in medium or 50 μl Hybridoma supernatant were added and incubated for 2 h at 4° C. Supernatant was aspirated and 100 μl/well Glutaraldehyde fixing solution (25% stock solution Grade EM; final concentration=0.05% in PBS) was added and incubated for 10 minutes at room temperature. For washing 2 times 200 μl PBS/well/wash was added and removed. 50 μl of ELISA detection-antibody diluted in ELISA blocking reagent (ELISA blocking stock reagent diluted 1:10 in PBS) was added. […] The plates were measured at 450 nm-620 nm using an ELISA reader (TECAN).

EC50: 0.0186 µg/mL
B1: Mab 1G12 (antibody, V domains shown)
VH: QVQLQQPGAELVKPGASVRMSCKTSDYTFTSNWMHWVKQRPGQGLEWIGTIDPSDSYTYYNQKFKGRATLTVDTSSSTAYMQLSSLTSEDSAVYYCTTSGDYDADRYFDVWGAGTTVTVSS
VL: DIVLTQSPASLGVSLGQRATISCRASKSVSTSGDSYMHWYQQKPGQSPKLLIYLASNLESGVPARFSGSGSGTDFTLNIHPVEEEDAATYYCQQSRELPLSFGAGTKLELK
notes: Monoclonal antibody from immunized NMRI mice; detected with anti-mouse IgG1-PE / anti-mouse IgG; also called F20.1G12; monoclonal antibody 1G12
